From publication doi:10.1101/2025.03.01.640964 (bioRxiv, 2025) come the findings set out here.

Ends that are not written are not given here. * marks the point of attachment. Biotin = O=C1N[C@H]2[C@H](CS[C@H]2CCCCC(=O)*)N1

The target in one assay is SteC_(210-429) WT (Salmonella Typhimurium strain 14028s, UniProt D0ZIB5 210-429). The experiment in a line: BLI; […] (1 ug/ml) […] (SA) biosensors; […]; Octet Red, 25 °C; 50 mM HEPES pH 7.5, 150 mM NaCl, 10 mM MgCl2, 0.5 mM TCEP, 0.05% Tween-20; […]. The settings on record: both partners purified. In general terms: BLI is a label-free optical method that tracks binding on a fibre tip over time.

The target of another assay is SteC_(210-429;K256H) (Salmonella Typhimurium strain 14028s, UniProt D0ZIB5 210-429, K256H). The description is as above. The settings on record: both partners purified.

As usually defined, the Kd is the free concentration of one partner at which half of the binding sites on the other are occupied at equilibrium, for simple one-to-one binding. A low value points to a tighter complex. Regarding Biotin-KGPPSSVPKSRHLTIKLTPAHSRK (peptide, UniProt O95466 190-213, looked up) [N-terminally biotinylated FMNL1 peptide], the Kd is 7.9 µM with SteC_(210-429) WT and 22 µM in the assay with SteC_(210-429;K256H).
